The record followed here is publication PMC4260256, “A novel serine hydroxymethyltransferase from Arthrobacter nicotianae: characterization and improving catalytic efficiency by rational design” (BMC Biotechnology, 2014).

The data set relates to NC(C(=O)O)C(O)c1ccccc1. Nature of the data set: purified protein. Conditions: pH 7.8; 40.0 °C.

Consider AnSHMT (Glutamicibacter nicotianae), for which the Km is given as 57.86 ± 0.07 mM and the specificity constant (kcat/Km) worked out at 27.7 M⁻¹ s⁻¹.
